The record followed here is patent publication US20110213019, “Compositions and Methods for Treating Cancer, Inhibiting Proliferation, and Inducing Cell Death” (UNIVERSITY OF LOUISVILLE RESEARCH FOUNDATION, INC., published 2011).

Data set [1] concerns the target alpha-enolase (UniProt P06733 P06733:2-434). Briefly: EMSA; strong binding; supershifted by alpha-enolase polyclonal antibody. Conditions: parallel G4. The source says:
(§1) EMSAs were used to characterize the binding of α-enolase and MBP-1 to the c-myc quadruplex-forming sequence. […] The quadruplex oligonucleotide aptamer, GRO29A, competed for α-enolase and MBP-1 binding to PU27. […] A mutation in the PU27 sequence, which prevents quadruplex formation, abrogated binding of both α-enolase and MBP-1. MBP-1 also binds to a downstream site in the P2 promoter.

For data set [2], the target named is MBP-1 (alternative translation product of alpha-enolase) (UniProt P06733-2 P06733-2:1-341). Described as above. Conditions: parallel G4.
Text: as §1

Chain of MBP-1 (alternative translation product of alpha-enolase) (P06733 94-434, one chain of several): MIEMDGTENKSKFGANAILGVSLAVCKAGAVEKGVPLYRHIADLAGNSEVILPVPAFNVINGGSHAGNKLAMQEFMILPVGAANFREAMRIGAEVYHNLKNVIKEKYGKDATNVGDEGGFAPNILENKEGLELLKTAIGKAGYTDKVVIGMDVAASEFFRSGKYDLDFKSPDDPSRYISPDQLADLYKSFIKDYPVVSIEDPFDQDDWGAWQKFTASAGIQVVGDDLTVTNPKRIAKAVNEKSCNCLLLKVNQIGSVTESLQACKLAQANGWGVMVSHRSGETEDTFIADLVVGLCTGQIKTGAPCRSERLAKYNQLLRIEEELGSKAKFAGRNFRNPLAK
Chain of alpha-enolase (P06733 2-434, one chain of several): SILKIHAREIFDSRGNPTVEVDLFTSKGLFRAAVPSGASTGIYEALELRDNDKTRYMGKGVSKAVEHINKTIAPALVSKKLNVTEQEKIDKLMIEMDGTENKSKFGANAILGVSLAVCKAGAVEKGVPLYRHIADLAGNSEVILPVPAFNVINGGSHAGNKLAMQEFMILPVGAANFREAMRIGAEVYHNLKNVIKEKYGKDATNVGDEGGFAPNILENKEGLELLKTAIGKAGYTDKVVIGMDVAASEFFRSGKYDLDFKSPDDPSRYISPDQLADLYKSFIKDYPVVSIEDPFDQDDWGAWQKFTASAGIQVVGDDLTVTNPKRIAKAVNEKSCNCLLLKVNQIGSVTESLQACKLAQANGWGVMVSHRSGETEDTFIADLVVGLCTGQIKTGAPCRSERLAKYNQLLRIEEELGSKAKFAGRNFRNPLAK

Take TGGGGAGGGTGGGGAGGGTGGGGAAGG (structured_DNA) [PU27 (c-Myc promoter quadruplex)]: the binding result in data set [1] and in data set [2] was “binds” in each case.
